Assays:
Test in all cases: G assay
[1] = target: …
[2] = target: …; remark: listed apart in the source
[3] = target: Peptide #1852, biotin-[…]
[4] = target: Peptide #1791, biotin-…
[5] = target: Peptide #1841, biotin-…
[6] = target: …; remark: listed apart in the source
[7] = target: Peptide #1829, biotin-…
[8] = target: Peptide #1846, biotin-[…]
[9] = target: …; remark: listed apart in the source

Measured: binding result

B1: GST-Syntrophin 1 alpha PDZ domain 1 fusion protein (other, not shown: a dimerising Fc or GST; small tags and cut ends)
chain: QRRRVTVRKADAGGLGISIKGGRENKMPILISKIFKGLAADQTEALFVGDAILSVNGEDLSSATHDEAVQVLKKTGKEVVLEVKYMKDVSPYFK
notes: also called Syntrophin 1 alpha d1 (52.5); Syntrophin 1 alpha D1
binds: [1]

B2: GST-RIM2 PDZ domain 1 fusion protein (other, not shown: a dimerising Fc or GST; small tags and cut ends)
chain: TLNEEHSHSDKHPVTWQPSKDGDRLIGRILLNKRLKDGSVPRDSGAMLGLKVVGGKMTESGRLCAFITKVKKGSLADTVGHLRPGDEVLEWNGRLLQGATFEEVYNIILESKPEPQVELVVSRPIG
notes: also called RIM2 (177.4); RIM-2 d1
not listed: [1]
binds: all other assays above

B3: GST-ZO-1 PDZ domain 2 fusion protein (other, not shown: a dimerising Fc or GST; small tags and cut ends)
chain: ISSQPAKPTKVTLVKSRKNEEYGLRLASHIFVKEISQDSLAARDGNIQEGDVVLKINGTVTENMSLTDAKTLIERSKGKLKMVVQRDRATLLNSS
notes: also called ZO-1 d2 (241.3); ZO-1 D2
not listed: [8]
binds: all other assays above

B4: GST-PAR3 PDZ domain 3 fusion protein (other, not shown: a dimerising Fc or GST; small tags and cut ends)
chain: PREFLTFEVPLNDSGSAGLGVSVKGNRSKENHADLGIFVKSIINGGAASKDGRLRVNDQLIAVNGESLLGKTNQDAMETLRRSMSTEGNKRGMIQLIVASRISKCNELKSNSS
notes: also called PAR3 d3 (278.1); PAR3 D3
binds: [1] | [4] | [6] | [9]

B5: GST-INADL PDZ domain 3 fusion protein (other, not shown: a dimerising Fc or GST; small tags and cut ends)
chain: PGSDSSLFETYNVELVRKDGQSLGIRIVGYVGTSHTGEASGIYVKSIIPGSAAYHNGHIQVNDKIVAVDGVNIQGFANHDVVEVLRNAGQVVHLTLVRRKTSSSTSRIHRD
notes: also called INADL d3 (96.3); INADL D3
binds: [7] | [9]
